Measurements as given in patent publication US20050148763A1, “Peg-binding pth or peg-binding pth derivative” (Chugai Seiyaku Kabushiki Kaisha, priority 2002, published 2005).

Columns and labels:
human PTH1 receptors [1] = biological target: T1, human PTH1 receptors (Homo sapiens, UniProt Q03431); assay: in vitro ability to produce cAMP, HKRK-B7 cells; assay type: cell-based; conditions: Table 2(1), n=2-3; for EC50: cAMP production
T1 construct: expressed in transfected cells; host or cells: HKRK-B7 and HKRK-B64 cells (derived from pig kidney LLC-PK1 cells)
T1 sequence (Q03431 27-593): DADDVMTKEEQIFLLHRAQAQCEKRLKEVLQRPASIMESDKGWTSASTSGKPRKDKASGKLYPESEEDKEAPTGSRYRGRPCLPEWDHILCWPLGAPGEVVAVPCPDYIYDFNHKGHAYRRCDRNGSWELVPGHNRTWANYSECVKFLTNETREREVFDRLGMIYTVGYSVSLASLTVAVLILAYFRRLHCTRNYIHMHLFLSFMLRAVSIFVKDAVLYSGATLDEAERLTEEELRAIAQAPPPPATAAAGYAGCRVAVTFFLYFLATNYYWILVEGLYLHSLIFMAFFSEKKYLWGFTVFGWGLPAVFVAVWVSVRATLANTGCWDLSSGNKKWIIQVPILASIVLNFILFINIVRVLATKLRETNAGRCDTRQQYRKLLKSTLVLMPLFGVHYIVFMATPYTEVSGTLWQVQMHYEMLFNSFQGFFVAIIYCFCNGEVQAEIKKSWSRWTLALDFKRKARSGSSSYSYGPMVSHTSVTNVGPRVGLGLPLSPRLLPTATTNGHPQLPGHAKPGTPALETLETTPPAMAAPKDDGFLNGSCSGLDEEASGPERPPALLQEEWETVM
Protocol: (§1) Each PEG-PTH sample was assayed for its ability to produce cAMP (indicative of the increasing effect of PTH on bone mass) as follows. […] These cells were seeded in 96-well plates at 1×10^5 cells/well and incubated overnight. […] After removing the reaction solution, the plates were placed on powdered dry ice to freeze the cells and then removed from the dry ice. The cells were thawed with 50 μL of 50 mM HCl and frozen again on dry ice. The level of intracellular cAMP was determined with a commercially available EIA kit (Biotrak cAMP EIA system, Amersham).

human PTH1 receptors [2] = biological target: T1, human PTH1 receptors; assay: in vitro ability to produce cAMP, HKRK-B64 cells; assay type: cell-based; conditions: Table 2(2), n=2-3; for EC50: cAMP production
Protocol: Each PEG-PTH sample was assayed for its ability to produce cAMP (indicative of the increasing effect of PTH on bone mass) as follows. HKRK-B7 and HKRK-B64 cells, genetically modified from pig kidney-derived LLC-PK1 cells to overexpress human PTH1 receptors at levels of about 1×10^6 and 9×10^4 receptors per cell, respectively, as well as EW29 cells expressing about 1.9×10^5 rat PTH1 receptors per cell (Takasu et al., J. Bone. Miner. Res. 14: 11-20, 1999) were grown in DMEM supplemented with 10% FBS, 1% penicillin and 1% streptomycin. These cells were seeded in 96-well plates at 1×10^5 cells/well and incubated overnight. On the following day, the cells were washed once with 200 μL binding buffer (50 mM Tris-HCl/100 mM NaCl/5 mM KCl/2 mM CaCl2/5% inactivated horse serum/0.5% inactivated bovine serum, pH 7.7), followed by addition of 100 μL cAMP assay buffer (DMEM/2 mM 3-isobutyl-1-methylxanthine/1 mg/mL bovine serum albumin/35 mM HEPES-NaOH, pH 7.4) on ice. […] After removing the reaction solution, the plates were placed on powdered dry ice to freeze the cells and then removed from the dry ice. The cells were thawed with 50 μL of 50 mM HCl and frozen again on dry ice. The level of intracellular cAMP was determined with a commercially available EIA kit (Biotrak cAMP EIA system, Amersham).

rat PTH1 receptors = biological target: T2, rat PTH1 receptors (Rattus norvegicus, UniProt P25961); assay: in vitro ability to produce cAMP, EW29 cells; assay type: cell-based; conditions: Table 2(3), n=2-3; for EC50: cAMP production
T2 construct: expressed in transfected cells; host or cells: EW29 cells
T2 sequence (P25961 27-591): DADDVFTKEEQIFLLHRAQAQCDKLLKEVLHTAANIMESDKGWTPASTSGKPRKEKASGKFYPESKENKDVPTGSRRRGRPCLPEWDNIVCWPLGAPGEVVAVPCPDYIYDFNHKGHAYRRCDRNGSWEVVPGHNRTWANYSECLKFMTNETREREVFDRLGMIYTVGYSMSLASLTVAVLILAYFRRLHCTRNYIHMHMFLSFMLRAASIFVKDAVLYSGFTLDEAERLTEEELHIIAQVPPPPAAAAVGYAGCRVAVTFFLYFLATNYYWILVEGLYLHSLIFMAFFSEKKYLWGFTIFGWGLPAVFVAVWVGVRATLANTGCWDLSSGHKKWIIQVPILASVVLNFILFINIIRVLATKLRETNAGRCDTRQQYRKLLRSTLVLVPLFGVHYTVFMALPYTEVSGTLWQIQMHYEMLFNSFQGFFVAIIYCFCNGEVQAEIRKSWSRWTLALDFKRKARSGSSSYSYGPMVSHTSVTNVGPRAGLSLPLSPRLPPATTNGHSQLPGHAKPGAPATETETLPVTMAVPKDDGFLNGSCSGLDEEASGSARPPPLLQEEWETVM
Protocol: as §1

[3] = Hypercalcemic effect of PEG-[Cys^35]-PTH(1-35) in normal female DDY mice; assay type: in vivo; conditions: for Blood iCa level Hour 1: 1 hour after administration; for Blood iCa level Hour 3: 3 hours; for Blood iCa level Hour 6: 6 hours; for Blood iCa level Hour 9: 9 hours; for Blood iCa level Hour 24: 24 hours; for Blood iCa level Hour 0: before administration; for hypercalcemic effect (in words): 10-150 nmol/kg
Protocol: 2 k, 5 k and 20 k PEG-[Cys^35]-PTH(1-35) were also adjusted similarly to 30, 10 and 2 nmol/mL (calculated as PTH) and allowed to stand on ice immediately before administration.
Using female DDY mice at 6 weeks of age (Japan SLC, Inc.), the corrected level of ionized calcium at pH 7.4 was determined for each sample in the same manner as shown in (1) above. The mice received subcutaneous administration of each drug at a dose of 5 mL/kg. The buffer was administered to a group of 5 mice. […] 150 nmol/kg 2 k, 5 k and 20 k PEG-[Cys^35]-PTH(1-35) were administered to groups of 4 mice each. 50 and 10 nmol/kg 2 k, 5 k and 20 k PEG-[Cys^35]-PTH(1-35) were administered to groups of 5 mice each. At 1, 3, 6, 9 and 24 hours after administration, blood was collected by orbital puncture to monitor the time course of corrected blood ionized calcium levels.

[4] = Pharmacokinetics and bioavailability in rats by subcutaneous route; assay type: in vivo; conditions: subcutaneous, 80 μg/mL at 1 mL/kg
Protocol: Each sample was adjusted to 80 μg/mL by dilution with 25 mmol/L citrate-phosphate buffer (pH 5.0) containing 100 mmol/L NaCl and 0.05 vol % Tween 20 to give a solution for administration. Male SD rats at 6 weeks of age (CLEA Japan, Inc.) were provided for this experiment. Intravenous injection was performed on rats having polyethylene tubes (SP-31, Natsume Seisakusho Co., Ltd.) inserted into the femoral artery and vein. The solutions thus prepared were each administered at a dose of 1 mL/kg through a polyethylene tube inserted into the femoral vein, and blood was collected through a polyethylene tube inserted into the femoral artery before administration and at 5, 15, 30 and 45 minutes as well as 1, 2, 4, 6, 8 and 24 hours after administration. Subcutaneous administration was performed on rats having polyethylene tubes inserted into the femoral artery. The solutions prepared above were each subcutaneously administered at a dose of 1 mL/kg to the dorsal neck region of the rats, and blood was collected in the same manner as used for intravenous injection. These blood samples were centrifuged to collect plasma and stored at −40° C. until assayed for PTH(1-34) or PEG-PTH(1-34) levels.
The level of PTH(1-34) or PEG-PTH(1-34) was determined by RIA analysis using a Rat PTH IRMA Kit (Immutopics). A Cobra Quantum Model 5005 gamma counter (Packard) was used to measure radioactivity for each sample. The plasma level of PTH(1-34) or PEG-PTH(1-34) was calculated from a calibration curve prepared using PTH(1-34) or PEG-PTH(1-34). The Winnonlin program Ver. 2.1 (Scientific Consulting Inc.) was used to analyze the time course of changes in the calculated plasma PTH(1-34) or PEG-PTH(1-34) levels (FIG. 3: by intravenous route; FIG. 4: by subcutaneous route) to calculate the following as pharmacokinetic parameters: time required to reach the maximum plasma level (Tmax); maximum plasma level (Cmax); area under the curve of plasma levels (AUC); plasma half-life (t1/2); total body clearance (Cltotal); mean residence time in the body (MRT); and bioavailability (BA). […]

| Substance | Maximum cAMP response (human PTH1 receptors [1]) | EC50 (human PTH1 receptors [1]) | Maximum cAMP response (human PTH1 receptors [2]) | EC50 (human PTH1 receptors [2]) | Maximum cAMP response (rat PTH1 receptors) | EC50 (rat PTH1 receptors) | Blood iCa level Hour 1 ([3]; 10 nmol/kg sc) | Blood iCa level Hour 3 ([3]; 10 nmol/kg sc) | Blood iCa level Hour 6 ([3]; 10 nmol/kg sc) | Blood iCa level Hour 9 ([3]; 10 nmol/kg sc) | Blood iCa level Hour 24 ([3]; 10 nmol/kg sc) | Blood iCa level Hour 0 ([3]; 10 nmol/kg sc) | Blood iCa level Hour 1 ([3]; 50 nmol/kg sc) | Blood iCa level Hour 3 ([3]; 50 nmol/kg sc) | Blood iCa level Hour 6 ([3]; 50 nmol/kg sc) | Blood iCa level Hour 9 ([3]; 50 nmol/kg sc) | Blood iCa level Hour 24 ([3]; 50 nmol/kg sc) | Blood iCa level Hour 0 ([3]; 50 nmol/kg sc) | Blood iCa level Hour 1 ([3]; 150 nmol/kg sc) | Blood iCa level Hour 3 ([3]; 150 nmol/kg sc) | further results |
| --- | --- | --- | --- | --- | --- | --- | --- | --- | --- | --- | --- | --- | --- | --- | --- | --- | --- | --- | --- | --- | --- |
| 20 k PEG-[Cys^35]-hPTH(1-35): [Cys^35]-hPTH(1-35) conjugated with 20 kDa PEG (SVSEIQLMHNLGKHLNSMERVEWLRKKLQDVHNFC; Parathyroid hormone 20 kDa PEG at Cys35; UniProt P01270 32-66, looked up, variant V35C) | 131.1 ± 7.5 pmol/well | 2.7 nM | 79.6 ± 14.6 pmol/well | 8 nM | 59.4 ± 12.9 pmol/well | 9.1 nM | 1.39 ± 0.03 mM | 1.51 ± 0.01 mM | 1.48 ± 0.05 mM | 1.43 ± 0.05 mM | 1.78 ± 0.09 mM | 1.27 ± 0.04 mM | 1.44 ± 0.03 mM | 1.53 ± 0.02 mM | 1.51 ± 0.03 mM | 1.44 ± 0.06 mM | 2.44 ± 0.12 mM | 1.30 ± 0.04 mM | 1.42 ± 0.02 mM | 1.54 ± 0.02 mM | Blood iCa level Hour 6 ([3]; 150 nmol/kg sc): 1.55 ± 0.03 mM; Blood iCa level Hour 9 ([3]; 150 nmol/kg sc): 1.43 ± 0.06 mM; Blood iCa level Hour 24 ([3]; 150 nmol/kg sc): 2.71 ± 0.19 mM; Blood iCa level Hour 0 ([3]; 150 nmol/kg sc): 1.30 ± 0.02 mM; hypercalcemic effect (in words) ([3]; female DDY mice, sc, listed as 20 k PEG-(Cys^35]-PTH(1-35)): very high blood ionized calcium levels at all tested doses; hypercalcemic effect (in words) ([3]; female DDY mice, sc, listed as 20 k PEG-[Cys^35]-PTH (1-35)): maintained a significantly higher level than that of the buffer group even at 9 hours after administration |
| 20k PEG-hPTH(1-34): hPTH(1-34) reacted with mPEG 20 k-SPA, fraction having one 20 kDa PEG molecule per PTH molecule |  |  |  |  |  |  |  |  |  |  |  |  |  |  |  |  |  |  |  |  | AUC [4]: 2693.945 ng·h/mL; MRT [4]: 18.93 h; Tmax [4]: 7.000 h; t ½ [4]: 11.346 h |
| 5 k PEG-[Cys^35]-hPTH(1-35): [Cys^35]-hPTH(1-35) conjugated with 5 kDa PEG (SVSEIQLMHNLGKHLNSMERVEWLRKKLQDVHNFC; Parathyroid hormone 5 kDa PEG at Cys35; UniProt P01270 32-66, looked up, variant V35C) | 122.7 ± 11.5 pmol/well | 0.9 nM | 66.6 ± 17.4 pmol/well | 1 nM | 52.5 ± 14.1 pmol/well | 3.5 nM | 1.44 ± 0.02 mM | 1.50 ± 0.02 mM | 1.43 ± 0.02 mM | 1.28 ± 0.04 mM | 1.36 ± 0.03 mM | 1.30 ± 0.04 mM | 1.43 ± 0.03 mM | 1.49 ± 0.04 mM | 1.48 ± 0.03 mM | 1.35 ± 0.06 mM | 1.36 ± 0.04 mM | 1.31 ± 0.03 mM | 1.43 ± 0.04 mM | 1.49 ± 0.03 mM | Blood iCa level Hour 6 ([3]; 150 nmol/kg sc): 1.52 ± 0.05 mM; Blood iCa level Hour 9 ([3]; 150 nmol/kg sc): 1.35 ± 0.02 mM; Blood iCa level Hour 24 ([3]; 150 nmol/kg sc): 1.40 ± 0.05 mM; Blood iCa level Hour 0 ([3]; 150 nmol/kg sc): 1.30 ± 0.03 mM; increased blood ionized calcium level maintained until ([3]; female DDY mice, sc): 6 h; time of maximum increase in blood ionized calcium levels after administration ([3]; female DDY mice, sc): 3 h |
